Data reported in patent US7402570 (Johns Hopkins, dated 2008).

Biological target: T1, human p53 protein, full length (human, UniProt P04637 1-393)
T1 construct: range 1-393; it is not clear whether that entry is whole p53 or the peptide, so it is not used here
Assay: yeast two-hybrid, lexA-responsive β-galactosidase reporter; (+) colonies turned blue following 24 hours (strain 4)

T1 sequence (P04637 whole entry): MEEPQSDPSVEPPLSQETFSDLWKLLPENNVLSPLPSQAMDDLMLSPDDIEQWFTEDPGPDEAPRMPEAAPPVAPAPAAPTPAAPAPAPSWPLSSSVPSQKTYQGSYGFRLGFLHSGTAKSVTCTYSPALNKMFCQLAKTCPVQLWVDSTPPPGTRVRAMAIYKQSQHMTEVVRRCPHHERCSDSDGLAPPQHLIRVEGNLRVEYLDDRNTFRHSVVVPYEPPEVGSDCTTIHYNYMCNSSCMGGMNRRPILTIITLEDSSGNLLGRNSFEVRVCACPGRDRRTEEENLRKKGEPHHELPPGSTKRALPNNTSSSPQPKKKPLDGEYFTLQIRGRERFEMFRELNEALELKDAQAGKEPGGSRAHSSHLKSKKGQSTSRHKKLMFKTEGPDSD

binding result: binds
B1: lexA-MDM2 (1-118) (other, not shown: small tags and cut ends)
chain: MCNTNMSVPTDGAVTTSQIPASEQETLVRPKPLLLKLLKSVGAQKDTYTMKEVLFYLGQYIMTKRLYDEKQQHIVYCSNDLLGDLFGVPSFSVKEHRKIYTMIYRNLVVVNQQESSDS
notes: Genetically engineered clone, expressed in yeast; also called MDM2 codons 1 to 118 fused to lexA
